Results from the domain aggregation screens of Martell et al. (2025).

experiment: soluble fraction after stress (log2 fold change); higher = more stays soluble; pooled small domains, quantitative proteomics; details: stress: 50 degC
In short: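 Each library was heated to 50°C as a stress step. The libraries, made up of small protein domains, were pooled and analysed at high throughput by quantitative proteomics. The reported value is the base-two logarithm of the fold change in each protein's soluble amount after stress, taken as a measure of aggregation propensity. The higher the value, the more protein stays in solution.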

Going from “HMKNHSTFKSVLSNIEFPINERISGHAIQNPILGLIKADHPNFSSDQYIAISELNFYREKYISNYLLTEI” to “HMEKRRQEIVELVKRESEISFAELKQHFPEVSEVTLRKDLKYLDSTLQIIRIHGGAKSLPAAI”, the “soluble fraction (log2)” value rises from -3.35 to -0.362.

“HMLDLYYDSEDKLLIDMGTGEVIRSFADDKRSLVFDAQAKILFDEDSGDIVYSSYFDKLITDKLASKS” and “HMFINTVELGRAIKRRREELGLSLRDVADVTNVSASTLSRIENGTGKPDADNIARLTGWLDMPIDRVM” are within 0.2 log units of each other in “soluble fraction (log2)” value: -0.0393 for the first, -0.0139 for the second.

Going from “HMDLAENWKDDADITLAEYNAIRSRYKPGKLHRDTEFMIARDMLIRPETVLAIAHSRFSNVHTHPV” to “HMSGYSTLFTRMSREDAQAVVSLLQDDGIEYRYNDDTGTVQVPSATVDQTRAKLVSAGYPRS”, the “soluble fraction (log2)” value rises from -0.945 to -0.231.

Going from “HMLSFSEAERAVLSLLNRRPDLSAKALASELAVSARTVERYLQSLQQKGKLLRVGAKKGGYWQV” to “HMKGDYWIIDLDKNYQYAIISEPDRQYLWILSRSPNMDTQTLETLKEKIRSKGFDLTYLKQTL”, the “soluble fraction (log2)” value falls from -0.478 to -0.844.

First: HMEGLESVVPDLRGKSLKSAAIAAGLSGFALSPEGSGIVYKQSPAPGGRYLKGTLIAVWLRT
Second: HMLFSEKLKQAMQDLHLNQIQVVGLTGKSKGSISQYISGKQVPSEATQRDIAISLGLEENYFSKK
The “soluble fraction (log2)” value of the first is lower: -0.513 for the first, 0.282 for the second.

Compared with “HMAAELHPYGADSYRGDNPPAGYEIKAKEESKKFHTPSSPWYGRTIAEIWFRTEEAAEAAGFINAVK”, “HMENVIYGINGPVVTVRNSRSFSMMEMVFVGNERLVGEVIGITDKITTIQVYEETTGLRPGEPVYGTGSPM” is lower in “soluble fraction (log2)” value: -0.23 for the first, -3.97 for the second.

Compared with “HMDFEVGTVKWFNTKKGYGFITRDQGEDIFVHFRNIKGQGRRSLSDGERVSFVVTHGDKGLQADQVSP”, “HMQTRIDISDAVLQWVVRKTQFAALPPKAAAHLTKWVRGEKKPTFNQLEEVSKATGIPLGYFFLQQPPHE” is higher in “soluble fraction (log2)” value: -1.38 for the first, -0.776 for the second.

Compared with “HMNTTLQLDTILRLEKNAHLLENFVRAGFTDSELGKLTDADLLQIGVPKIGDRRRLLAALAERAH”, “HMNAPKKPLSAYFLFSQEERLKVKAENPDYSITEVAKELGKRWATLNPDIKTVYEQRYQDARRIYETEMNT” is higher in “soluble fraction (log2)” value: -0.589 for the first, -0.303 for the second.

Going from “HMPMTLGENIARLRTQKDWSQGDLADALGISRQSISKWETDTSIPELEKLIKLSELFGVTLDQLVRGE” to “HMTGRHEEAIQELKRTLELHPQKPKIFLLLGVSYLRLNNLKKAVEAFNTVLLLQPKNQKALTMLKEIKKR”, the “soluble fraction (log2)” value rises from -0.193 to 0.0384.

“HMEARNDWAQQSRADAEFGGEKLDENLAVAKKAVEALASPELKTLLEQSGLGNHPEIIRLFYRAGRSLS” and “HMADIGRMKELIDILNRASAVYYQGKDEIMSNFEYDKLYDELVSLEKESGLVLAGSPTQKVGY” are within 0.2 log units of each other in “soluble fraction (log2)” value: 0.132 for the first, 0.153 for the second.

First: HMRGGLATLTPRERQVLALMAEGRSNAGIAAELVVSGGAVEKHVASIFTKLGLPPDESDNRRVLAVLRHLG
Second: HMLDFLVSKYESELLADLLWSLGVVAVEEREATGDLVTLRTSLGDDHSFTRELVQEKFPDVIVSTAL
The “soluble fraction (log2)” value of the first is higher: -0.661 for the first, -1.47 for the second.

“HMDDAVSHPDAGHIVTVTKVSADGTAEVMYRGASWRAKTADGSPLTAGSARIVRVDGAALVVEP” and “HMYEVDGLGIRIAQLRKKQDLTQEAFARTLGVSPQAVSKWETGIGYPDITLLPQIAKELGVSIDQLFGRN” are within 0.2 log units of each other in “soluble fraction (log2)” value: 0.052 for the first, 0.065 for the second.

Going from “HMTSNEKARNAASAERRADIVAAARELYEEQGLSKTSVQDITNRMGVARSLFYHYFPDKEAVTSAVLDDYV” to “HMKYPVYLQLADLIERKINKNEYPLGSKIPSERELIDAFGISRMTVRKAIEVLIEKGLLTRQHGKGTYVSQ”, the “soluble fraction (log2)” value falls from 0.244 to -1.29.

“HMTMVLPDAARDKLKAIGLSIEHVEPSPVKDIFTVISREGVSYVSKDGDYIFTGSLFHVKGKDVVNTTEQA” and “HMDRASGEEEALKEAEDAISRVWEFDGPVELNPQNSYLRRLQHELASRYNVKSVSIGQEPNRRVVYYK” are within 0.2 log units of each other in “soluble fraction (log2)” value: 0.128 for the first, -0.0181 for the second.

“HMNREDYIKAIFKIAEREGEASNQRIADSLGVSRASASEMVKKLIQEGFVVAEGRQLSLSAEGERIA” and “HMEQLNKNIKFDNFLESLNFINKVSEVAEEENHHPDLKFGWGYADITIFTHAIKGLSEGDFVLAAKIDVI” are within 0.2 log units of each other in “soluble fraction (log2)” value: 0.0824 for the first, 0.269 for the second.

First: HMSFVEVTVSELKNYVNSHARIKLKSGKEFKGFILDANEEGVIIKVQLRGGTAESTISYNRIDRAAVF
Second: HMEPLPDIPRGTRVSHQTAPADGDMPERRETGWTMTEPIRAQDGLAYVGVSVYGRGVVMLPVNSLSII
The “soluble fraction (log2)” value of the first is lower: -1.69 for the first, -0.319 for the second.

Compared with “HMVDKTMYDRYAVDDYVRVIDGPLVGTEGRIIELDRETGNVKIEAVFFGRVTTADINFALIEKVD”, “HMDAINITTYKGQITLTGTKTGTLVGIYNTAGMLVKSMMSKGEKLYFDNLPSGVYIIKVGEEEPRKVQVI” is lower in “soluble fraction (log2)” value: 0.0531 for the first, -0.165 for the second.

Compared with “HMNDEQFAIAKNDLLLSLYDGKEVNNSAAEYIIAWESLEKSPSDYISSQLKNTAESIIKISFD”, “HMGNKDIEILFSEIVEMRNRIIHGFRITSKQGEQILATKTRKKDGNIQFEITKEYLLDFIKKNEELSDMLY” is lower in “soluble fraction (log2)” value: 0.0499 for the first, -2.23 for the second.

Going from “HMKKSTLLLFFLKELLEGKKISLKSFALENDINIRTAQRYIEDIEEAFPDNLLKENDFYSFV” to “HMNLSPADFSSVRNALGLSLSTVAKESGINRNYLSNFEKKKHFLEETAKVKLRDYYMSIDPDAFAAAL”, the “soluble fraction (log2)” value rises from -2.25 to -0.177.

“HMAPVVELEDVTIVRGKATLLDRVNWVIDETDRWVIVGPNGAGKTTLLQVVSANLHPTSGKAMILDEVL” and “HMNNVRIEHIDTIGTVRLHKKRGVKRVSLRIHQSGEIRVTQPLYLPFSAGVLFAKSHTEWIMKQKQK” are within 0.2 log units of each other in “soluble fraction (log2)” value: 0.023 for the first, -0.000591 for the second.

Compared with “HMSSAMDMISRDVRNADSISISTTTYSKKIDLYNFDRNGDIEELHSYSAKNDLGILYNDEPI”, “HMRVESVGDRIRRLRKSLGLTQVKLAQMLGIKAPSVVQWESDKTNLSGENLLNAAKLFGVTPDYILYGG” is higher in “soluble fraction (log2)” value: -0.276 for the first, -0.0657 for the second.

“HMGITMFGQNLKKLRTSKNLSQSKLSKILGISSSTIGMYEQGRRFPDQTILTKIADFFDVSTDYLLGR” and “HMPSLSPDETVVVDALRQQNDMQINMISVKTNLPIARLSAILFEMELKGVLKPLAGGVYHLL” are within 0.2 log units of each other in “soluble fraction (log2)” value: -0.268 for the first, -0.316 for the second.

Compared with “HMKSKPRVPFGSLVEMGILKPGSILFDPKGKIKTKVMVDGSIKYKETEGSIHKVAAQIMGTESYNGWTYW”, “HMAFEDYAGEYRSAADFAESLHEDTGTEIPESLRYYIDWQALARDMALNGEIMVFQTGFDEVHIFWS” is lower in “soluble fraction (log2)” value: 0.355 for the first, -0.517 for the second.

First: HMPKMISPAQIKAIGAKTNNIAKASGVEQAQVYQSAVAHLGINNKSTKELTSQEASKVIEYLSTL
Second: HMSSVMMPDLTGESAIVAMERLQQLGLLPKVEEVDSYREPGIVLEQLPRAGEKIKRGRIAILKVSS
The “soluble fraction (log2)” value of the first is higher: 0.0861 for the first, -0.26 for the second.

First: HMGGTAGKINAIGVNFRTGPSTSYTSLGLLGKDTAVTVIGTSGKWYKVTIVSTGKTGYVYATYVNLTP
Second: HMEYSYKLIDLLVDRFSEEGVDPEEAREYINLFHRFSQGLDPDKRDITKYSWDELYRTVNDKKDS
The “soluble fraction (log2)” value of the first is lower: -1.81 for the first, 0.107 for the second.

“HMSAEKDGEWLTLTEAAKHLQVSPHVIRRLIQTGALPAEQVMRGAPHQIRAADLDTDRVKTMIAR” and “HMNKKAAYKDMAGYFAEMKSKDAADILSRLKDEDIIGIFNEMPRDMVAEMLQKMDRDKATTLTRKML” are within 0.2 log units of each other in “soluble fraction (log2)” value: 0.193 for the first, 0.385 for the second.

First: HMKLRSIQEQVQYLEKVDNQKAMQIILNMNDKASAVQILRNMKKEKAAAILAQMDPLQAAQILEDLA
Second: HMAEEPLRIWTDLQGRSIEASFIKFSGNNIVIKMKSGRDYEVARSLFSPGDQKYLSDLKKSTPE
The “soluble fraction (log2)” value of the first is higher: 0.0608 for the first, -0.701 for the second.

Going from “HMLELDRTNLLGVFGSKSNPYALIMLSNGEMLKLSIGDQFLGWRVYAIDQTTVHVQNGKNQEILRIP” to “HMGSQSYVAIVNERFKESDIVELGGSVGSRTGDIITLHFRNSSPNELKNITGIVYLQVANKVTPKL”, the “soluble fraction (log2)” value rises from -1.13 to -0.612.

Going from “HMSILSRREHEIMQWVKGGKTNIEIAQILGISARTVRNHLQNVFRKLDVINRAQAVFEVERRR” to “HMGTKVGAPLPGTITEVKVKVGDTVKAGDAVIILEAMKMQNNIEAEVSGTVSSVLVKEGDTVMEGDALITI”, the “soluble fraction (log2)” value rises from -2.15 to 0.144.

First: HMDAVQAGKRVLIVDDLIATGGTAKAATDLIEKAGGTVVGFSFVMRLDGLDGLDKLDGKPSSSLIAMP
Second: HMLDIVVGSTGYALGEITDHSGTVRVNGDTWTARLVDAAGPVEDGDRVEVYAVEGTTLLVYPS
The “soluble fraction (log2)” value of the first is higher: 0.237 for the first, -0.396 for the second.

Compared with “HMNPSVSSDERILLQKALGILSAEQKQIVMLHAVAGIKHREIAKLLDMPIATVLSKYSRAVNKLRHAMEA”, “HMKGAADPAIKQKVLDYLDTVEKAKSKEIAKAISEEKSAVDLAVKELAFEDKVEYLYITTTFVALKGKVA” is higher in “soluble fraction (log2)” value: -0.423 for the first, -0.168 for the second.

Going from “HMDGTEVTTEPPGAQVEYEGKQFGPTPARIPGLVAGKSLHITLPGYLEVKPKIKAVPKDGEPLSFTLTAI” to “HMITFRINQQSQVGLRLDKFIVQQMPDYSRTRIQSWIKTKNILVNGEGKKSGYALEFDDLVEVTIPE”, the “soluble fraction (log2)” value falls from 0.0823 to -2.04.

Compared with “HMLSRKEVFTVSQKDIEKNPIGAADKFFDGHVGIHKLLVVDEEDRLRGLFTLSDIERINDEQ”, “HMEETAFEKLSPLQKLRALGKPLTMINMRDGSQIAGSVQRSDDKFLYLDTGDGIAKLPVEEILRRTPM” is higher in “soluble fraction (log2)” value: 0.0269 for the first, 0.25 for the second.

First: HMNVDIVEITKNSSPNQISKVIDIGAIQIVEDLMSFGIMKAIDTPLEDSEIEQLLEKYNLIVDLIE
Second: HMNPESRRSELIDAATKLFFSRGYTATSIRDILDAVDDRTASPSVFYYYFESKEAIYQAVLQRYTD
The “soluble fraction (log2)” value of the first is lower: -2.33 for the first, -2.03 for the second.

In the case of “HMEKIDEDIMDVLKKKAEVSGISLGVLKSIYEKAVKQYKLGHEIGQVKEQYAMQKVNTHLLENK”, the “soluble fraction (log2)” value is reported as 0.194.
